Laboratory results published in article PMC8748919, “Dynamics and mechanism of dimer dissociation of photoreceptor UVR8” (Nature Communications, 2022).

B1: UVR8 W144 single-Trp mutant (receptor, Arabidopsis thaliana, UniProt Q9FN03 1-440, looked up)
chain: MAEDMAADEVTAPPRKVLIISAGASHSVALLSGDIVCSWGRGEDGQLGHGDAEDRPSPTQLSALDGHQIVSVTCGADHTVAYSQSGMEVYSWGWGDFGRLGHGNSSDLFTPLPIKALHGIRIKQIACGDSHCLAVTMEGEVQSFGRNQNGQLGLGDTEDSLVPQKIQAFEGIRIKMVAAGAEHTAAVTEDGDLYGWGWGRYGNLGLGDRTDRLVPERVTSTGGEKMSMVACGWRHTISVSYSGALYTYGWSKYGQLGHGDLEDHLIPHKLEALSNSFISQISGGWRHTMALTSDGKLYGWGWNKFGQVGVGNNLDQCSPVQVRFPDDQKVVQVSCGWRHTLAVTERNNVFAWGRGTNGQLGIGESVDRNFPKIIEALSVDGASGQHIESSNIDPSSGKSWVSPAERYAVVPDETGLTDGSSKGNGGDISVPQTDVKRVRI
notes: UVR8, Arabidopsis thaliana; mutant plasmid built on the wild-type plasmid; also called W144F; source: E. coli BL21-DE3, purified (Ni-Sepharose, Source-15Q)
B2: UVR8 W337F (receptor, Arabidopsis thaliana, UniProt Q9FN03 1-440, looked up)
chain: MAEDMAADEVTAPPRKVLIISAGASHSVALLSGDIVCSWGRGEDGQLGHGDAEDRPSPTQLSALDGHQIVSVTCGADHTVAYSQSGMEVYSWGWGDFGRLGHGNSSDLFTPLPIKALHGIRIKQIACGDSHCLAVTMEGEVQSWGRNQNGQLGLGDTEDSLVPQKIQAFEGIRIKMVAAGAEHTAAVTEDGDLYGWGWGRYGNLGLGDRTDRLVPERVTSTGGEKMSMVACGWRHTISVSYSGALYTYGWSKYGQLGHGDLEDHLIPHKLEALSNSFISQISGGWRHTMALTSDGKLYGWGWNKFGQVGVGNNLDQCSPVQVRFPDDQKVVQVSCGFRHTLAVTERNNVFAWGRGTNGQLGIGESVDRNFPKIIEALSVDGASGQHIESSNIDPSSGKSWVSPAERYAVVPDETGLTDGSSKGNGGDISVPQTDVKRVRI
notes: UVR8, Arabidopsis thaliana; mutant plasmid built on the wild-type plasmid; source: E. coli BL21-DE3, purified (Ni-Sepharose, Source-15Q)
B3: UVR8 W94F (receptor, Arabidopsis thaliana, UniProt Q9FN03 1-440, looked up)
chain: MAEDMAADEVTAPPRKVLIISAGASHSVALLSGDIVCSWGRGEDGQLGHGDAEDRPSPTQLSALDGHQIVSVTCGADHTVAYSQSGMEVYSWGFGDFGRLGHGNSSDLFTPLPIKALHGIRIKQIACGDSHCLAVTMEGEVQSWGRNQNGQLGLGDTEDSLVPQKIQAFEGIRIKMVAAGAEHTAAVTEDGDLYGWGWGRYGNLGLGDRTDRLVPERVTSTGGEKMSMVACGWRHTISVSYSGALYTYGWSKYGQLGHGDLEDHLIPHKLEALSNSFISQISGGWRHTMALTSDGKLYGWGWNKFGQVGVGNNLDQCSPVQVRFPDDQKVVQVSCGWRHTLAVTERNNVFAWGRGTNGQLGIGESVDRNFPKIIEALSVDGASGQHIESSNIDPSSGKSWVSPAERYAVVPDETGLTDGSSKGNGGDISVPQTDVKRVRI
notes: as for B2
B4: UVR8 W196 single-Trp mutant (receptor, Arabidopsis thaliana, UniProt Q9FN03 1-440, looked up)
chain: MAEDMAADEVTAPPRKVLIISAGASHSVALLSGDIVCSWGRGEDGQLGHGDAEDRPSPTQLSALDGHQIVSVTCGADHTVAYSQSGMEVYSWGWGDFGRLGHGNSSDLFTPLPIKALHGIRIKQIACGDSHCLAVTMEGEVQSWGRNQNGQLGLGDTEDSLVPQKIQAFEGIRIKMVAAGAEHTAAVTEDGDLYGFGWGRYGNLGLGDRTDRLVPERVTSTGGEKMSMVACGWRHTISVSYSGALYTYGWSKYGQLGHGDLEDHLIPHKLEALSNSFISQISGGWRHTMALTSDGKLYGWGWNKFGQVGVGNNLDQCSPVQVRFPDDQKVVQVSCGWRHTLAVTERNNVFAWGRGTNGQLGIGESVDRNFPKIIEALSVDGASGQHIESSNIDPSSGKSWVSPAERYAVVPDETGLTDGSSKGNGGDISVPQTDVKRVRI
notes: UVR8, Arabidopsis thaliana; mutant plasmid built on the wild-type plasmid; also called W196F; source: E. coli BL21-DE3, purified (Ni-Sepharose, Source-15Q)
B5: UVR8 W300 single-Trp mutant (receptor, Arabidopsis thaliana, UniProt Q9FN03 1-440, looked up)
chain: MAEDMAADEVTAPPRKVLIISAGASHSVALLSGDIVCSWGRGEDGQLGHGDAEDRPSPTQLSALDGHQIVSVTCGADHTVAYSQSGMEVYSWGWGDFGRLGHGNSSDLFTPLPIKALHGIRIKQIACGDSHCLAVTMEGEVQSWGRNQNGQLGLGDTEDSLVPQKIQAFEGIRIKMVAAGAEHTAAVTEDGDLYGWGWGRYGNLGLGDRTDRLVPERVTSTGGEKMSMVACGWRHTISVSYSGALYTYGWSKYGQLGHGDLEDHLIPHKLEALSNSFISQISGGWRHTMALTSDGKLYGFGWNKFGQVGVGNNLDQCSPVQVRFPDDQKVVQVSCGWRHTLAVTERNNVFAWGRGTNGQLGIGESVDRNFPKIIEALSVDGASGQHIESSNIDPSSGKSWVSPAERYAVVPDETGLTDGSSKGNGGDISVPQTDVKRVRI
notes: UVR8, Arabidopsis thaliana; mutant plasmid built on the wild-type plasmid; also called W300F; source: E. coli BL21-DE3, purified (Ni-Sepharose, Source-15Q)
B6: UVR8 W198 single-Trp mutant (receptor, Arabidopsis thaliana, UniProt Q9FN03 1-440, looked up)
chain: MAEDMAADEVTAPPRKVLIISAGASHSVALLSGDIVCSWGRGEDGQLGHGDAEDRPSPTQLSALDGHQIVSVTCGADHTVAYSQSGMEVYSWGWGDFGRLGHGNSSDLFTPLPIKALHGIRIKQIACGDSHCLAVTMEGEVQSWGRNQNGQLGLGDTEDSLVPQKIQAFEGIRIKMVAAGAEHTAAVTEDGDLYGWGFGRYGNLGLGDRTDRLVPERVTSTGGEKMSMVACGWRHTISVSYSGALYTYGWSKYGQLGHGDLEDHLIPHKLEALSNSFISQISGGWRHTMALTSDGKLYGWGWNKFGQVGVGNNLDQCSPVQVRFPDDQKVVQVSCGWRHTLAVTERNNVFAWGRGTNGQLGIGESVDRNFPKIIEALSVDGASGQHIESSNIDPSSGKSWVSPAERYAVVPDETGLTDGSSKGNGGDISVPQTDVKRVRI
notes: UVR8, Arabidopsis thaliana; mutant plasmid built on the wild-type plasmid; also called W198F; source: E. coli BL21-DE3, purified (Ni-Sepharose, Source-15Q)

Target: the molecule itself
Assay: SEC; dimer/monomer state of the purified protein before UV irradiation; 150 mM NaCl, 25 mM Tris-HCl, pH 8.0

Row | Protein | binding result
1 | B1 | binds
2 | B2 | binds
3 | B3 | binds
4 | B4 | binds
5 | B5 | binds
6 | B6 | binds
